Assay results from IntAct's records for PubMed 20956295.

B1: Tumor necrosis factor receptor superfamily member 6 (Homo sapiens), P25445-1 (parent)
chain: MLGIWTLLPLVLTSVARLSSKSVNAQVTDINSKGLELRKTVTTVETQNLEGLHHDGQFCHKPCPPGERKARDCTVNGDEPDCVPCQEGKEYTDKAHFSSKCRRCRLCDEGHGLEVEINCTRTQNTKCRCKPNFFCNSTVCEHCDPCTKCEHGIIKECTLTSNTKCKEEGSRSNLGWLCLLLLPIPLIVWVKRKEVQKTCRKHRKENQGSHESPTLNPETVAINLSDVDLSKYITTIAGVMTLSQVKGFVRKNGVNEAKIDEIKNDNVQDTAEQKVQLLRNWHQLHGKKEAYDTLIKDLKKANLCTLAEKIQTIILKDITSDSENSNFRNEIQSLV

Variants of: B1
Conditions: with cav1_human CAV1, Q03135
Chain of cav1_human CAV1, Q03135 (Q03135 whole entry): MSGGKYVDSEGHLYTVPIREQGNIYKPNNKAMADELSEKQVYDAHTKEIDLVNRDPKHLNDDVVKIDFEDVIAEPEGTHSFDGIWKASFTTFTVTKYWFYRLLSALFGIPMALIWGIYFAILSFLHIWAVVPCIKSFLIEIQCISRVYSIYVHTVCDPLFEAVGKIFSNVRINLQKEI

| effect of a mutation on the interaction | Variant |
| --- | --- |
| disrupting interaction | C199S |
